One protein from PMC12931234, “Allosteric Modulation of Pathological Ataxin‐3 Aggregation: A Path to Spinocerebellar Ataxia Type‐3 Therapies” (Advanced Science, 2025) can be followed below.

This data set deals with the molecule itself. The data set is described as follows: thioflavin T fluorescence aggregation assay; 5 µM protein (monomer peak from Superose 12), 30 µM ThT, 37 °C, 20 mM HEPES pH 7.5, 150 mM NaCl, 1 mM DTT; without or with CLR01 or CLR03; amyloid self-assembly.

B1: Truncated ataxin-3 variant comprising the N-terminal globular Josephin domain (Atx3 JD) (domain or fragment, human, UniProt P54252-2 1-180, looked up)
chain: MESIFHEKQEGSLCAQHCLNNLLQGEYFSPVELSSIAHQLDEEERMRMAEGGVTSEDYRTFLQQPSGNMDDSGFFSIQVISNALKVWGLELILFNSPEYQRLRIDPINERSFICNYKEHWFTVRKLGKQWFNLNSLLTGPELISDTYLALFLAQLQQEGYSIFVVKGDLPDCEADQLLQM
notes: Ataxin-3 (Atx3), human, UniProt P54252-2, N-terminal globular Josephin domain; printed MW 23 767.87 Da; The text names residues up to R182; NMR models of JD: PDB 1YZB and 2AGA (cited); also called isolated JD; not shown: His6, N-terminal, kept
Consider B1, for which the binding result is recorded as “binds”.
